Results from PMC10492824.

How the values were obtained:
[1] = target: Zn-containing form of the soluble domain of the Rieske-type iron-sulfur protein PetA from Thermochromatium tepidum (Thermochromatium tepidum); experiment: SEC-MALS; Superdex 200 Increase 10/300 GL, buffer A, 0.5 mL/min, 24 °C; about 100 µL of 7.3 mg/mL protein (first colorless SEC fraction) injected
[2] = target: Zn-containing form of the soluble domain of the Rieske-type iron-sulfur protein PetA from Thermochromatium tepidum (Thermochromatium tepidum); experiment: SEC; purification step after removal of the His-tag; HiLoad 16/60 Superdex 75 in buffer A (10 mM Tris-HCl pH 7.6, 150 mM NaCl); masses estimated with low molecular weight marker mixture

For “Zn-containing form of the soluble domain of the Rieske-type iron-sulfur protein PetA from Thermochromatium tepidum (domain or fragment)”, which stoichiometry N [1] is on record?
Its stoichiometry N is 2.

And the stoichiometry N [2]?
The stoichiometry N was 2.
